# In paper PMC8635412, “Identification of disease-linked hyperactivating mutations in UBE3A through large-scale functional variant analysis” (Nature Communications, 2021):
# Biological target: T1, N-terminal fluorescein-labeled ubiquitin (UniProt P0CG48 1-76, fluorescein on the N-terminus)
# T1 construct: source: bought: Anaspec
# Assay: fluorescence polarisation; 1 uM fluorescein-labeled ubiquitin with varied concentrations of UBE3A HECT domain, 384-well plate, 30 °C; one-site specific binding model
# Conditions: both partners purified
row,Binder,Kd [µM]
1,"UBE3A HECT domain, wild type (domain or fragment, human, UniProt Q05086-2 495-852, looked up, UBE3A, human, HECT domain; residue numbers follow human UBE3A isoform I (NP_001361390.1); Cloned into pRSFDuet-1 with an octa-histidine-GST double tag and a TEV site; also called WT HECT domain; WT UBE3A; not shown: His8, N-terminal, cleaved; GST, N-terminal, cleaved) QLNPYLRLKVRRDHIIDDALVRLEMIAMENPADLKKQLYVEFEGEQGVDEGGVSKEFFQLVVEEIFNPDIGMFTYDESTKLFWFNPSSFETEGQFTLIGIVLGLAIYNNCILDVHFPMVVYRKLMGKKGTFRDLGDSHPVLYQSLKDLLEYEGNVEDDMMITFQISQTDLFGNPMMYDLKENGDKIPITNENRKEFVNLYSDYILNKSVEKQFKAFRRGFHMVTNESPLKYLFRPEEIELLICGSRNLDFQALEETTEYDGGYTRDSVLIREFWEIVHSFTDEQKRLFLQFTTGTDRAPVGGLGKLKMIIAKNGPDTERLPTSHTCFNVLLLPEYSSKEKLKERLLKAITYAKGFGML",65.7 ± 28.5
2,"UBE3A HECT domain Q588E (domain or fragment, human, UniProt Q05086-2 1-852, looked up, UBE3A, human, HECT domain with the patient variant Q588E; residue numbers follow human UBE3A isoform I (NP_001361390.1); Made by site-directed mutagenesis of the m1 construct; Q588E is a variant found in individuals (ClinVar); also called Q588E HECT domain; UBE3A Q588E; not shown: His8, N-terminal, cleaved; GST, N-terminal, cleaved) QLNPYLRLKVRRDHIIDDALVRLEMIAMENPADLKKQLYVEFEGEQGVDEGGVSKEFFQLVVEEIFNPDIGMFTYDESTKLFWFNPSSFETEGEFTLIGIVLGLAIYNNCILDVHFPMVVYRKLMGKKGTFRDLGDSHPVLYQSLKDLLEYEGNVEDDMMITFQISQTDLFGNPMMYDLKENGDKIPITNENRKEFVNLYSDYILNKSVEKQFKAFRRGFHMVTNESPLKYLFRPEEIELLICGSRNLDFQALEETTEYDGGYTRDSVLIREFWEIVHSFTDEQKRLFLQFTTGTDRAPVGGLGKLKMIIAKNGPDTERLPTSHTCFNVLLLPEYSSKEKLKERLLKAITYAKGFGML",18 ± 1.5
